This experiment deals with T1, human C5 (human, UniProt P01031 19-673; P01031 678-1676, Beta and alpha chains are disulfide-linked and the protein is glycosylated.).
T1 construct: Either in-house recombinant C5 or plasma derived C5 (CALBIOCHEM) was used; also called recombinant human C5; plasma derived human C5
The experiment in a line: Biacore, captured antibody, pH 7.4, 37 C. (Surface plasmon resonance follows binding to a sensor surface in real time, without labels.)

This note sets out measurements from patent publication US20180016327A1 (Chugai, published 2018).

Positions count from the first letter of the chain named.
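Further: biacore binding response of anti-C5 antibody light chain variants captured on chip with human C5 injected, ACES running buffer containing 1.2 mM CaCl₂, parent light chain antibody set to 100.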

B1: CFP0011 11L 31A (antibody, V domains shown)
VH: QVQLVQSGAEVKKPGSSVKVSCKASGGTFSSYAISWVRQAPGQGLEWMGGIIPIFGTANYAQKFQGRVTITADESTSTAYMELSSLRSEDTAVYYCARDMSEFLGWSNYYSYPMDVWGQGTTVTVSS
VL: DIQMTQSPSSLSASVGDRVTITCRASQSIEADLAWYQQKPGKAPKLLIYHASSLQSGVPSRFSGSGSGTDFTLTISSLQPEDFATYYCQQSDNSPYTFGQGTKVEIK
Take B1: the “% binding (parent = 100)” value turned out to be 112%.

B2: CFP0017 17L 32N (antibody, V domains shown)
VH: QVQLVQSGAEVKKPGSSVKVSCKASGGTFSSYAISWVRQAPGQGLEWMGGIIPIFGTANYAQKFQGRVTITADESTSTAYMELSSLRSEDTAVYYCARGGWWGGALDYWGQGTLVTVSS
VL: B1 VL with A31D, D32N, N93S, S94Y, Y96L
On to B2, for which the “% binding (parent = 100)” value stood at 27%.

B3: CFP0021 (antibody, V domains shown)
VH: QVQLVESGGGLVQPGGSLRLSCAASGFTFSDHYMDWVRQAPGKGLEWVGRTRNKANSYTTEYAASVKGRFTISRDDSKNSLYLQMNSLKTEDTAVYYCARTGMMYWGIFDVWGQGTLVTVSS
VL: B1 VL with A31D, S53T, S91H, N93S, S94Y, Y96L
notes: IgG format
In the case of B3, the “% binding (parent = 100)” value was found to be 100%.

B4: CFP0011 11L 94T (antibody, V domains shown)
VH: B1 VH
VL: B1 VL with A31D, S94T
As for B4, the “% binding (parent = 100)” value amounted to 207%.

B5: CFP0021 21L 50A (antibody, V domains shown)
VH: B3 VH
VL: B1 VL with A31D, H50A, S53T, S91H, N93S, S94Y, Y96L
As for B5, the “% binding (parent = 100)” value was found to be 33.4%.

B6: CFP0011 11L 93S (antibody, V domains shown)
VH: B1 VH
VL: B1 VL with A31D, N93S
For B6, the “% binding (parent = 100)” value stood at 4%.

B7: CFP0011 11L 91Y (antibody, V domains shown)
VH: B1 VH
VL: B1 VL with A31D, S91Y
Turning to B7, the “% binding (parent = 100)” value worked out at 56%.

B8: CFP0011 11L 53T (antibody, V domains shown)
VH: B1 VH
VL: B1 VL with A31D, S53T
Regarding B8, the “% binding (parent = 100)” value stood at 98.9%.

B9: CFP0021 21L 31H (antibody, V domains shown)
VH: B3 VH
VL: B1 VL with A31H, S53T, S91H, N93S, S94Y, Y96L
In the case of B9, the “% binding (parent = 100)” value is 41.3%.

B10: CFP0021 21L 32N (antibody, V domains shown)
VH: B3 VH
VL: B1 VL with A31D, D32N, S53T, S91H, N93S, S94Y, Y96L
On to B10, for which the “% binding (parent = 100)” value amounted to 17.5%.

B11: CFP0011 11L 53N (antibody, V domains shown)
VH: B1 VH
VL: B1 VL with A31D, S53N
For B11, the “% binding (parent = 100)” value worked out at 105%.

B12: CFP0011 11L 96P (antibody, V domains shown)
VH: B1 VH
VL: B1 VL with A31D, Y96P
Take B12: the “% binding (parent = 100)” value was -1.6%.

B13: CFP0021 21L 30D (antibody, V domains shown)
VH: B3 VH
VL: B1 VL with E30D, A31D, S53T, S91H, N93S, S94Y, Y96L
In the case of B13, the “% binding (parent = 100)” value came out at 87.5%.

B14: CFP0011 11L 96H (antibody, V domains shown)
VH: B1 VH
VL: B1 VL with A31D, Y96H
For B14, the “% binding (parent = 100)” value is 5.1%.

B15: CFP0011 11L 91R (antibody, V domains shown)
VH: B1 VH
VL: B1 VL with A31D, S91R
Take B15: the “% binding (parent = 100)” value is -2.6%.

B16: CFP0021 21L 30S (antibody, V domains shown)
VH: B3 VH
VL: B1 VL with E30S, A31D, S53T, S91H, N93S, S94Y, Y96L
In the case of B16, the “% binding (parent = 100)” value came to 76.7%.

B17: CFP0011 11L 50A (antibody, V domains shown)
VH: B1 VH
VL: B1 VL with A31D, H50A
As to B17, the “% binding (parent = 100)” value turned out to be 95.2%.

B18: CFP0011 11L 32N (antibody, V domains shown)
VH: B1 VH
VL: B1 VL with A31D, D32N
Regarding B18, the “% binding (parent = 100)” value is 3.6%.

B19: CFP0011 11L 31N (antibody, V domains shown)
VH: B1 VH
VL: B1 VL with A31N
Take B19: the “% binding (parent = 100)” value stood at 125%.

B20: CFP0011 11L 50D (antibody, V domains shown)
VH: B1 VH
VL: B1 VL with A31D, H50D
With B20, the “% binding (parent = 100)” value amounted to 58.2%.

B21: CFP0011 11L 96I (antibody, V domains shown)
VH: B1 VH
VL: B1 VL with A31D, Y96I
Turning to B21, the “% binding (parent = 100)” value amounted to 0.8%.

B22: CFP0021 21L 34N (antibody, V domains shown)
VH: B3 VH
VL: B1 VL with A31D, A34N, S53T, S91H, N93S, S94Y, Y96L
Turning to B22, the “% binding (parent = 100)” value is 14.4%.

B23: CFP0011 11L 50E (antibody, V domains shown)
VH: B1 VH
VL: B1 VL with A31D, H50E
Turning to B23, the “% binding (parent = 100)” value amounted to 75.6%.

B24: CFP0021 21L 32Q (antibody, V domains shown)
VH: B3 VH
VL: B1 VL with A31D, D32Q, S53T, S91H, N93S, S94Y, Y96L
For B24, the “% binding (parent = 100)” value was 80.4%.

B25: CFP0021 21L 31N (antibody, V domains shown)
VH: B3 VH
VL: B1 VL with A31N, S53T, S91H, N93S, S94Y, Y96L
As to B25, the “% binding (parent = 100)” value was found to be 52.3%.

B26: CFP0011 11L 93R (antibody, V domains shown)
VH: B1 VH
VL: B1 VL with A31D, N93R
On to B26, for which the “% binding (parent = 100)” value was 11.7%.

B27: CFP0011 11L 93D (antibody, V domains shown)
VH: B1 VH
VL: B1 VL with A31D, N93D
As for B27, the “% binding (parent = 100)” value is 5.4%.

B28: CFP0011 11L 31H (antibody, V domains shown)
VH: B1 VH
VL: B1 VL with A31H
In the case of B28, the “% binding (parent = 100)” value was found to be 100%.

B29: CFP0011 11L 91H (antibody, V domains shown)
VH: B1 VH
VL: B1 VL with A31D, S91H
With B29, the “% binding (parent = 100)” value was found to be 320%.

B30: CFP0011 11L 96L (antibody, V domains shown)
VH: B1 VH
VL: B1 VL with A31D, Y96L
Consider B30, for which the “% binding (parent = 100)” value came out at 3.2%.

B31: CFP0021 21L 31A (antibody, V domains shown)
VH: B3 VH
VL: B1 VL with S53T, S91H, N93S, S94Y, Y96L
As to B31, the “% binding (parent = 100)” value was determined as 31.2%.

B32: CFP0011 11L 32Q (antibody, V domains shown)
VH: B1 VH
VL: B1 VL with A31D, D32Q
B32: the “% binding (parent = 100)” value came out at 18.4%.

B33: CFP0021 21L 30H (antibody, V domains shown)
VH: B3 VH
VL: B1 VL with E30H, A31D, S53T, S91H, N93S, S94Y, Y96L
Turning to B33, the “% binding (parent = 100)” value worked out at 59.7%.

B34: CFP0011 11L 92S (antibody, V domains shown)
VH: B1 VH
VL: B1 VL with A31D, D92S
Consider B34, for which the “% binding (parent = 100)” value turned out to be 1.1%.

B35: CFP0011 11L 96F (antibody, V domains shown)
VH: B1 VH
VL: B1 VL with A31D, Y96F
As to B35, the “% binding (parent = 100)” value is 82.8%.

B36: CFP0021 21L 50D (antibody, V domains shown)
VH: B3 VH
VL: B1 VL with A31D, H50D, S53T, S91H, N93S, S94Y, Y96L
Take B36: the “% binding (parent = 100)” value came to 53%.

B37: CFP0011 11L 34N (antibody, V domains shown)
VH: B1 VH
VL: B1 VL with A31D, A34N
On to B37, for which the “% binding (parent = 100)” value stood at 29.2%.

B38: CFP0021 21L 30A (antibody, V domains shown)
VH: B3 VH
VL: B1 VL with E30A, A31D, S53T, S91H, N93S, S94Y, Y96L
Consider B38, for which the “% binding (parent = 100)” value was found to be 76.9%.

B39: CFP0011 11L 93G (antibody, V domains shown)
VH: B1 VH
VL: B1 VL with A31D, N93G
On to B39, for which the “% binding (parent = 100)” value turned out to be 3.6%.

B40: CFP0011 11L 53H (antibody, V domains shown)
VH: B1 VH
VL: B1 VL with A31D, S53H
Take B40: the “% binding (parent = 100)” value turned out to be 115%.

B41: CFP0011 11L 94Y (antibody, V domains shown)
VH: B1 VH
VL: B1 VL with A31D, S94Y
Turning to B41, the “% binding (parent = 100)” value was -0.7%.

B42: CFP0011 11L 96W (antibody, V domains shown)
VH: B1 VH
VL: B1 VL with A31D, Y96W
With B42, the “% binding (parent = 100)” value was 5.4%.
